Consider one molecule from patent US20220289850 (published 2022).

One test deals with T1, human integrin avb6 (human, UniProt P06756).
T1 chain 1: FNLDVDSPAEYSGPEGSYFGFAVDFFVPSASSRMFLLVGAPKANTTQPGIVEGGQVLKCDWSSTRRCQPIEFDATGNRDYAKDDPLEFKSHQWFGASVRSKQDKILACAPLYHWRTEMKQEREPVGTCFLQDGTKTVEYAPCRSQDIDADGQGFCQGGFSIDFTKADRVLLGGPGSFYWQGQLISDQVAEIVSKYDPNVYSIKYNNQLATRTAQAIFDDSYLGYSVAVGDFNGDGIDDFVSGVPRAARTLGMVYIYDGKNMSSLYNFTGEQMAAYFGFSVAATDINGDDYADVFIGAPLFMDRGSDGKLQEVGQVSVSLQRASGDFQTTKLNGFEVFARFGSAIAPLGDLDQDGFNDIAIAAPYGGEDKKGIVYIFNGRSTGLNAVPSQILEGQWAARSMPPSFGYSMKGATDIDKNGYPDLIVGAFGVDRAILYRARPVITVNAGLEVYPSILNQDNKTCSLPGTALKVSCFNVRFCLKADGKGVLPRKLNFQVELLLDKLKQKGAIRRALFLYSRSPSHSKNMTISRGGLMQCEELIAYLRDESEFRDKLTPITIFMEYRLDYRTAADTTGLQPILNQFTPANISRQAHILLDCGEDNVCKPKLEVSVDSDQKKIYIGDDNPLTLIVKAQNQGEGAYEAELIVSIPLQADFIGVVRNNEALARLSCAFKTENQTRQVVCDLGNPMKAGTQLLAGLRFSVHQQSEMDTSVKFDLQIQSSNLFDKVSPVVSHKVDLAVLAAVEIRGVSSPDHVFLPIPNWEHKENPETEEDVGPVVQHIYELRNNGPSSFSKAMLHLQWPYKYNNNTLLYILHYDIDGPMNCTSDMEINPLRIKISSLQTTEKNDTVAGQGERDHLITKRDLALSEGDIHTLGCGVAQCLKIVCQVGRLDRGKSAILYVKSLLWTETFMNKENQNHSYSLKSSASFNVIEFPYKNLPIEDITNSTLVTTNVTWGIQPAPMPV
T1 chain 2: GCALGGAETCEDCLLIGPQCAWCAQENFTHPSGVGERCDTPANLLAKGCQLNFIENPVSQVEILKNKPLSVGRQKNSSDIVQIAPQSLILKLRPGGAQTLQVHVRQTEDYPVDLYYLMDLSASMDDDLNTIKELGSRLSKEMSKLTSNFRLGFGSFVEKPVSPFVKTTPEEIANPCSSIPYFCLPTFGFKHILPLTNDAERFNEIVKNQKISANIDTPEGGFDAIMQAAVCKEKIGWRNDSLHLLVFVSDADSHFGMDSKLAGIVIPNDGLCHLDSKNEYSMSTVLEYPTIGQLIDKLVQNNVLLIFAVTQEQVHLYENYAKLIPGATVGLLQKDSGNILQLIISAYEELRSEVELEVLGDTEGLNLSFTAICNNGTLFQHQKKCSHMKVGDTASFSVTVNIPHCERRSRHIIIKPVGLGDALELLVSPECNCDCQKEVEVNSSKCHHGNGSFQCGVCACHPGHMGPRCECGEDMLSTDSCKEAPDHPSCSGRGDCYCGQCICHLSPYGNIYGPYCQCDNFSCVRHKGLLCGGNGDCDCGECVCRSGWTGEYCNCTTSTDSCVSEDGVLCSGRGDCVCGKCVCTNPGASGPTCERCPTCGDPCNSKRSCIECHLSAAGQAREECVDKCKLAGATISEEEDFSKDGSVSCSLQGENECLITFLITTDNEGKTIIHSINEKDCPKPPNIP
As to the kind of experiment: SPR.

The next test has as its target T2, human integrin avb3 (human, UniProt P06756).
T2 chain 1: T1 chain 1
T2 chain 2: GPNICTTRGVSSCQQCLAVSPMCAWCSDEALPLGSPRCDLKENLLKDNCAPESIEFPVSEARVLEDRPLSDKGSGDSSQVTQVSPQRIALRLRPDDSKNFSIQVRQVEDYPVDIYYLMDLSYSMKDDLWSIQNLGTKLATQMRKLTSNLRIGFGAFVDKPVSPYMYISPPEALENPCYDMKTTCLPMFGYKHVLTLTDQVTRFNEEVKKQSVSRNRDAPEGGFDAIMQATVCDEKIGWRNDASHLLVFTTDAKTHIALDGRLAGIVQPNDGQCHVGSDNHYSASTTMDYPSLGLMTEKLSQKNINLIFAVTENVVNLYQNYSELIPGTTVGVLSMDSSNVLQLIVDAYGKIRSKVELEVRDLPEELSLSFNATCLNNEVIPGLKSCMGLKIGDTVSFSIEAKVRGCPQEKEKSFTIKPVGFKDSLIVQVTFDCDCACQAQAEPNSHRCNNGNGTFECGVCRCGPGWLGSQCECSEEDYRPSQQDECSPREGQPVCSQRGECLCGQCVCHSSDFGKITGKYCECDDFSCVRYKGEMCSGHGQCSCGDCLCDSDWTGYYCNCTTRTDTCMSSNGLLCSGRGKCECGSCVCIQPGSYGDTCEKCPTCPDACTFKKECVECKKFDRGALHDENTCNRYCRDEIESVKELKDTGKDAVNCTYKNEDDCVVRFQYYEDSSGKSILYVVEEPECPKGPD
As to the kind of experiment: SPR. For orientation: SPR reads the build-up and loss of mass on a sensor chip optically.

B1: ADWA11 2.4 IgG (antibody)
chain 1: EVQLVESGGGLVQPGGSLRLSCAASGFNIKDYYMNWVRQAPGKGLEWVGWIDPDQGNTIYEPKFQGRFTISADTSKNSAYLQMNSLRAEDTAVYYCARRLLMDYWGQGTLVTVSSASTKGPSVFPLAPSSKSTSGGTAALGCLVKDYFPEPVTVSWNSGALTSGVHTFPAVLQSSGLYSLSSVVTVPSSSLGTQTYICNVNHKPSNTKVDKKVEPKSCDKTHTCPPCPAPEAAGAPSVFLFPPKPKDTLMISRTPEVTCVVVDVSHEDPEVKFNWYVDGVEVHNAKTKPREEQYNSTYRVVSVLTVLHQDWLNGKEYKCKVSNKALPAPIEKTISKAKGQPREPQVYTLPPSREEMTKNQVSLTCLVKGFYPSDIAVEWESNGQPENNYKTTPPVLDSDGSFFLYSKLTVDKSRWQQGNVFSCSVMHEALHNHYTQKSLSLSPGK
chain 2: DIQMTQSPSSLSASVGDRVTITCRSTKSLSHFNGNTYLFWYQQKPGKAPKRLIYYMSSLASGVPSRFSGSGSGTDFTLTISSLQPEDFATYYCQQSLEYPFTFGGGTKVEIKRTVAAPSVFIFPPSDEQLKSGTASVVCLLNNFYPREAKVQWKVDNALQSGNSQESVTEQDSKDSTYSLSSTLTLSKADYEKHKVYACEVTHQGLSSPVTKSFNRGEC
Take B1: the binding result in the test with human integrin avb6 and in the test with human integrin avb3 was “no binding” throughout.
